According to patent publication US20100239590A1:

Target: human IL-17RC on HS68 foreskin fibroblast cells (human) (UniProt Q8NAC3)
Test: cell-based or functional assay

UniProt Q8NAC3, sequence (Q8NAC3 21-791): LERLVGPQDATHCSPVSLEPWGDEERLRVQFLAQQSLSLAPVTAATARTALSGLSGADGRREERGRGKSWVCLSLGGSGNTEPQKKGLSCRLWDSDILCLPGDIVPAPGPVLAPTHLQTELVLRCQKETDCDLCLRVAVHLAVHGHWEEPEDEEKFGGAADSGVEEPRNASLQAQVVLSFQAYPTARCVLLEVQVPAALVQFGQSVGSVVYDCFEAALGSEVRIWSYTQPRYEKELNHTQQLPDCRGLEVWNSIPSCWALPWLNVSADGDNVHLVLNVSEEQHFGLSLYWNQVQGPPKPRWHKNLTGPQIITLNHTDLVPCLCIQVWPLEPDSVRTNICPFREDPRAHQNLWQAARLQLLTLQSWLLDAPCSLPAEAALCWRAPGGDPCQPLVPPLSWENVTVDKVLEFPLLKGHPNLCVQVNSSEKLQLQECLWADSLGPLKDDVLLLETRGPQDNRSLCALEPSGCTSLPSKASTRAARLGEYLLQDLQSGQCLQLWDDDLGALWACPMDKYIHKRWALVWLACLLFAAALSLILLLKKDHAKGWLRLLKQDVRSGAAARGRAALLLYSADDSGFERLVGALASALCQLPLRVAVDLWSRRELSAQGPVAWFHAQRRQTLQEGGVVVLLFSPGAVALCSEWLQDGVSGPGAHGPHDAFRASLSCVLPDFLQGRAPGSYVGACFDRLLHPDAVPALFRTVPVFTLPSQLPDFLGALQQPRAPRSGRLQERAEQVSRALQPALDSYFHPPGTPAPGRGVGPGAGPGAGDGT

- IL-6 induction in HS68 cells, EC50: 5 to 10 ng/mL
Substance: human IL-17A (from UniProt Q16552 24-155) (ligand)
